This is an account of results in PMC6465352 (Scientific Reports, 2019).

One may read the Km as the concentration of substrate that gives half-maximal velocity. The term kcat denotes the number of substrate molecules converted per active site and unit of time at saturation. By kcat/Km is commonly meant the second-order rate constant that governs catalysis at low substrate concentration.

Series [1] addresses T1, SyCS (Synechocystis sp. PCC 6803, UniProt Q59977).
T1 construct: gene gltA; full-length gltA (synthesized) in pGEX5X-1, GST-tagged, tag not reported cut; expressed in E. coli DH5alpha, glutathione-Sepharose purified
T1 sequence (Q59977 1-397): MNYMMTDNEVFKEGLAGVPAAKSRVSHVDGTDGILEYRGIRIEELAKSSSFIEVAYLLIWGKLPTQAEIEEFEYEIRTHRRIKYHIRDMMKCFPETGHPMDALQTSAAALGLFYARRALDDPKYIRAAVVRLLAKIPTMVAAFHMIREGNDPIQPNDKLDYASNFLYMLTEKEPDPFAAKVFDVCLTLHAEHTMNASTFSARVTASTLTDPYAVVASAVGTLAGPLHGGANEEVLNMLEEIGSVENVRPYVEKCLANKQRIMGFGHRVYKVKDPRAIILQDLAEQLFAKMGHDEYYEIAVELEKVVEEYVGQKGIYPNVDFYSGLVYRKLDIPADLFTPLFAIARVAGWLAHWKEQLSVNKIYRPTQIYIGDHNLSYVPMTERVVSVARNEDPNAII
Kind of series: DTNB assay at A412, relative activity. In kind it is biochemical. The following applies: read-out: % activity at 5 mM.

The target in series [2] is T1, SyCS. The series is described as follows: DTNB assay at A412, residual activity. In kind it is biochemical. As to conditions: read-out: % activity at 5 mM.
Substrate in series [3]: O=C(O)CC(=O)C(=O)O
Kind of series: DTNB assay at A412, Lineweaver-Burk. As to conditions: acetyl-CoA 0.5 mM, no effector, 50 mM Tris-HCl pH 7.5, 37 °C, GST-tagged enzyme. It is filed as biochemical, Synechocystis sp. PCC 6803. The text has this:
(§1) DTNB assay at […], Lineweaver-Burk on SyCS

Substrate in series [4]: CC(=O)SCCNC(=O)CCNC(=O)[C@H](O)C(C)(C)COP(=O)(O)OP(=O)(O)OC[C@H]1O[C@@H](n2cnc3c(N)ncnc32)[C@H](O)[C@@H]1OP(=O)(O)O
Kind of series: DTNB assay at A412, Lineweaver-Burk. It is filed as biochemical, Synechocystis sp. PCC 6803. As to conditions: oxaloacetate 1 mM, no effector, 50 mM Tris-HCl pH 7.5, 37 °C, GST-tagged enzyme.
From the text: as §1

With `Nc1ncnc2c1ncn2[C@@H]1O[C@H](COP(=O)(O)OP(=O)(O)O)[C@@H](O)[C@H]1O` [ADP], the activity at 5000 µM on SyCS [1] is 369%.

On to `O=C(O)CCC(=O)C(=O)O` [2-oxoglutarate], for which the activity at 5000 µM at SyCS [2] is 2%.

With `C=C(OP(=O)(O)O)C(=O)O` [phosphoenolpyruvate], the activity at 5000 µM on SyCS [2] was 14%.

B1: SyCS (Synechocystis sp. PCC 6803 substr. Kazusa) (protein)
chain: MNYMMTDNEVFKEGLAGVPAAKSRVSHVDGTDGILEYRGIRIEELAKSSSFIEVAYLLIWGKLPTQAEIEEFEYEIRTHRRIKYHIRDMMKCFPETGHPMDALQTSAAALGLFYARRALDDPKYIRAAVVRLLAKIPTMVAAFHMIREGNDPIQPNDKLDYASNFLYMLTEKEPDPFAAKVFDVCLTLHAEHTMNASTFSARVTASTLTDPYAVVASAVGTLAGPLHGGANEEVLNMLEEIGSVENVRPYVEKCLANKQRIMGFGHRVYKVKDPRAIILQDLAEQLFAKMGHDEYYEIAVELEKVVEEYVGQKGIYPNVDFYSGLVYRKLDIPADLFTPLFAIARVAGWLAHWKEQLSVNKIYRPTQIYIGDHNLSYVPMTERVVSVARNEDPNAII
notes: full-length gltA (synthesized) in pGEX5X-1, GST-tagged, tag not reported cut; expressed in E. coli DH5alpha, glutathione-Sepharose purified
On to B1, for which, in series [3], the Km was found to be 91 ± 11 µM, the turnover number (kcat) worked out at 2.76 ± 0.26 s⁻¹ and the kcat/Km was 30500 ± 3170 M⁻¹ s⁻¹. In series [4], the Km is 220 ± 77 µM, the kcat came out at 2.51 ± 0.24 s⁻¹ and the kcat/Km worked out at 12100 ± 2950 M⁻¹ s⁻¹.
